One molecule from PMC9821441, “Quick and Spontaneous Transformation between [3Fe–4S] and [4Fe–4S] Iron–Sulfur Clusters in the tRNA-Thiolation Enzyme TtuA” (International Journal of Molecular Sciences, 2023) can be followed below.

The assay concerns the target T1, [4Fe–4S]-TtuA (tRNA-thiolation enzyme TtuA from Thermus thermophilus HB27, reconstituted with a [4Fe–4S] … (Thermus thermophilus (HB27 strain), UniProt Q72LF3 1-321).
T1 construct: TtuA, tRNA-thiolation enzyme, Thermus thermophilus HB27; Carries a [4Fe–4S] cluster with the unique (non-cysteine-chelated) Fe; same polypeptide as m2, only the cofactor differs; also called TthTtuA; reconstituted TtuA; source: [4Fe–4S] reconstituted with DTT, FeCl3 and Na2S
T1 sequence (looked up): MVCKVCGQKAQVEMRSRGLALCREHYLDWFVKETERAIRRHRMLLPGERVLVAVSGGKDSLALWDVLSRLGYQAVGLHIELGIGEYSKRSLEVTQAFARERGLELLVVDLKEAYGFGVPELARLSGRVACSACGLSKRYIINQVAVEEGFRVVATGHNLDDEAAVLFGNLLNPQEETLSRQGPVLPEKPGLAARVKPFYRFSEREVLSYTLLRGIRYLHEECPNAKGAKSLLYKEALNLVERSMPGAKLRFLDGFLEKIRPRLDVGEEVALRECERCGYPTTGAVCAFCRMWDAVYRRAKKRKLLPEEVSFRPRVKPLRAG
Put plainly: EPR spectroscopy; TtuA mixed with TtuB–COSH to a final concentration of 0.5 mM, 25 °C for 5 min, strictly anaerobic; then 5-fold molar excess dithionite, 25 °C for 10 min, frozen; CW X-band EPR (~9.59 GHz) at 12 K for [4Fe–4S]1+ and 40 K for [3Fe–4S]1+; reads the Fe–S cluster only. Conditions: both partners purified.

B1: TtuB–COSH (sulfur donor protein TtuB from Thermus thermophilus HB27 with a C-terminal thiocarboxylate) (natural protein, Thermus thermophilus (HB27 strain), UniProt Q72LF4 1-65, looked up)
chain: MRVVLRLPERKEVEVKGNRPLREVLEELGLNPETVVAVRGEELLTLEDEVREEDTLEVLSAISGG
modifications: not fully specified (C-terminus)
notes: TtuB, sulfur donor (sulfur carrier) protein, Thermus thermophilus HB27; source: E. coli B834 (DE3), pTYB1, purified on chitin resin; intein cleaved with 50 mM ammonium sulfide; not shown: intein, C-terminal, cleaved
On to B1, for which the binding result is reported as “binds”.
